Positions count from the first letter of the chain named. Names may count otherwise.

Test [1] has as its system various anti-gD2 antibodies. The experiment in a line: Reactivity of gD variants with anti-gD2 antibodies (competitive ELISA). Particulars: for Reactivity with anti-gD2 antibody 1 / Reactivity with anti-gD2 antibody 5 / Reactivity with anti-gD2 antibody 13 / Reactivity with anti-gD2 antibody 72 / Reactivity with anti-gD2 antibody 75 / Reactivity with anti-gD2 antibody 78 / Reactivity with anti-gD2 antibody 82: immobilized gD variant; for Relative reactivity with antibody No. 82 (gD1-315 wild-type set to 1): FIG. 13. The class given is binding, human. An excerpt:
Each anti-gD2 monoclonal antibody and each gD variant were expressed using an Expi293 expression system.

For a further test, the system named is HSV-2 MS strain. Nature of the test: Mouse infection-prevention test of modified gD (genital herpes infection model). The class given is in vivo, BALB/c mice. On the set-up: key to Determination (vs gD1-315) / Determination# (vs gD1-315): ++: minimum effective dose based on the Significant difference test in three-fold common ratio relative to gD1-315(WT) of two or more doses stronger; +: those of one dose stronger; ±: those of an equivalent value. As to the method:
Immunogenicity test of the modified gD antigen was performed using the wild-type gD antigen gD1-315 (WT) as a positive control and saline as a negative control. A predetermined amount of antigen was dissolved in saline for injection (saline) with MPLA (10 μg/mouse) and CpG (1 μg/mouse) and immunized to mice at a volume of 200 μL/mouse. BALB/c mice (5 weeks old, female) were used for the study and immunized subcutaneously in back at 2-week intervals for a total of 3 times (N=4 cases per group). Two weeks after the final immunization (third dose), blood was collected and serum was prepared for each individual. The prepared serum was serially diluted and assessed for neutralizing antibody-inducing activity against HSV-2 (50% plaque number-reducing activity).
An infection-prevention test in the preventive administration of modified gD antigen was performed using a mouse genital herpes infection model. Similar to the mouse immunogenicity test described above, mice were immunized with the number of N=10 cases per group. Depo-Provera was inoculated subcutaneously at 2 mg/mouse 6 days prior to viral inoculation to improve the multiplicity of infection upon viral inoculation 2 weeks after final immunization (third dose). 5×10^5 PFU/20 μL HSV-2 MS strain was inoculated transvaginally under anesthesia and observed for 21 days. Infection prevention ability was evaluated using survival time (survival rate) as index.
The infection model of the mouse genital herpes infection model was used to evaluate infection prevention ability of various modified gD in preventive administration. The number of animal cases in each group was set to n=10, and wild-type gD (gD1-315) was used as a positive control and saline was used as a negative control. The experiments were performed a total of four times (experiments 1-4) and four doses of 0.1 μg/mouse/time, 0.03 μg/mouse/time, 0.01 μg/mouse/time and 0.003 μg/mouse/time were set for all of the positive control, negative control, and subject modified gD antigen. Depo-Provera was inoculated subcutaneously at 2 mg/mouse 6 days prior to viral inoculation to improve the multiplicity of infection upon viral inoculation 2 weeks after final immunization (third dose). 5×10^5 PFU/20 HSV-2 MS strain was inoculated transvaginally under anesthesia and observed for 21 days. Infection prevention ability was evaluated using survival time (survival rate) as index. Mean values of those were plotted in the graph. A Significant difference test for the negative control group was performed by the Kaplan-Meier method, and those with a minimum effective dose based on the Significant difference test in three-fold common ratio relative to wild type gD of two or more doses stronger were determined to be “++”, those of one dose stronger were determined to be “+”, and those of an equivalent value were determined to be “±”.

Setting [2] is: Experiment 2, 0.003 μg/head/time.
[3] abbreviates: Experiment 2, 0.01 μg/head/time.
Setting [4] is: Experiment 2, 0.03 μg/head/time.
[5] abbreviates: Experiment 1, 0.003 μg/head/time.
Where [6] appears, read: Experiment 1, 0.01 μg/head/time.
The mark [7] stands for this setting: Experiment 1, 0.03 μg/head/time.
Where [8] appears, read: Experiment 4, 0.01 μg/head/time.
Where [9] appears, read: Experiment 4, 0.03 μg/head/time.
Setting [10] is: Experiment 4, fourth dose line, 0.03 μg/head/time.

B1: gD1-315V (protein)
chain: KYALADPSLKMADPNRFRGKNLPVLDQLTDPPGVKRVYHIQPSLEDPFQPPSIPITVYYAVLERACRSVLLHAPSEAPQIVRGASDEARKHTYNLTIAWYRMGDNCAIPITVMEYTECPYNKSLGVCPIRTQPRWSYYDSFSAVSEDNLGFLMHAPAFETAGTYLRLVKINDWTEITQFILEHRARASCKYALPLRIPPAACLTSKAYQQGVTVDSIGMLPRFIPENQRTWALYSLKIAGWHGPKPPYTSTLLPPELSDTTNATQPELVPEDPEDSALLEDPAGTVSSQIPPNWHIPSIQDVAPHHAPAAPSNPGHHHHHH
Take B1: in test [1], the “Reactivity with anti-gD2 antibody 1” value is listed as “+ ((+): 70% or more)”, the “Reactivity with anti-gD2 antibody 5” value is “+ ((+): 70% or more)”, the “Reactivity with anti-gD2 antibody 13” value is recorded as “+ ((+): 70% or more)” and the “Reactivity with anti-gD2 antibody 72” value is recorded as “+ ((+): 70% or more)”. In test [1], the “Reactivity with anti-gD2 antibody 75” value is “+ ((+): 70% or more)”, the “Reactivity with anti-gD2 antibody 78” value was “+ ((+): 70% or more)” and the “Reactivity with anti-gD2 antibody 82” value is reported as “+ ((+): 70% or more)”.

B2: gD1-315v3: gD1-315 with glycochain introduced at P50 (SC-F) (protein)
chain: B1 chain with P50N, P51A, W231V
With B2, in test [1], the “Reactivity with anti-gD2 antibody 1” value is “+ ((+): 70% or more)”, the “Reactivity with anti-gD2 antibody 5” value is given as “− ((−): less than 30%)”, the “Reactivity with anti-gD2 antibody 13” value is recorded as “+ ((+): 70% or more)” and the “Reactivity with anti-gD2 antibody 72” value is reported as “− ((−): less than 30%)”. Besides, in test [1], the “Reactivity with anti-gD2 antibody 75” value is “− ((−): less than 30%)”, the “Reactivity with anti-gD2 antibody 78” value is listed as “− ((−): less than 30%)” and the “Reactivity with anti-gD2 antibody 82” value is given as “+ ((+): 70% or more)”.

B3: gD1-315v5V: gD1-315 with glycochains at SC-A, SC-F and V231W (protein)
chain: B1 chain with P50N, P51A, R186N
Regarding B3, in test [1], the “Reactivity with anti-gD2 antibody 1” value was “+ ((+): 70% or more)”; the “Reactivity with anti-gD2 antibody 5” value is “− ((−): less than 30%)”; the “Reactivity with anti-gD2 antibody 13” value was “+ ((+): 70% or more)”; the “Reactivity with anti-gD2 antibody 72” value was “± ((±): 30% or more and less than 70%)”. For the same molecule, in test [1], the “Reactivity with anti-gD2 antibody 75” value was “± ((±): 30% or more and less than 70%)”; the “Reactivity with anti-gD2 antibody 78” value is recorded as “− ((−): less than 30%)”; the “Reactivity with anti-gD2 antibody 82” value is given as “+ ((+): 70% or more)”.

B4: gD1-315v3-55V: Table 12: glycochain D, F, T cell epitope peptide and V231W (protein)
chain: KYALADPSLKMADPNRFRGKNLPVLDQLTDPPGVKRVYHIQPSLEDPFQNASIPITVYYAVLERACRSVLLHAPSEAPQIVRGASDEARKHTYNLTIAWYRMGDNCAIPITVMEYTECPYNKSLGVCPIRTQPRWSYYDSFSAVSEDNLGFLMHAPAFETAGTYLRLVKINDWTEITQFILEHRARASCKYALPLRIPPAACLTSKAYQQGVTVDSIGMLPRFIPENQRTWALYSLKIAGWHGPKPPYTSTLLPPELSDTTNATQPELVPEDPEDSALLEDPAGTVSSQIPPNWHIPSIQDVAPHHAPAAPSNPGGPGPGIAFWVRRRAQMAPKPLRIAFWVRRRAQMAPKPLRHHHHHH
modifications: left off: small tags and cut ends
B4: in the test on HSV-2 MS strain (setting [2]), the “Mean survival time” value was 7 days and the “Significant difference test (vs saline)” value is “N.S”. In the test on HSV-2 MS strain (setting [3]), the “Mean survival time” value was greater than 16.5 days and the “Significant difference test (vs saline)” value was “N.S”. For the same molecule, in the test on HSV-2 MS strain (setting [4]), the “Mean survival time” value is listed as greater than 22 days and the “Significant difference test (vs saline)” value is “** (** 0.001 = < p < 0.01)”. Besides, in the test with HSV-2 MS strain (Experiment 2, 0.1 μg/head/time), the “Mean survival time” value is given as greater than 22 days and the “Significant difference test (vs saline)” value was “*** (*** p < 0.001)”. Besides, the “Determination# (vs gD1-315)” value in the test on HSV-2 MS strain (Experiment 2, minimum effective dose relative to gD1-315(WT)) is “+”. Further, in test [1], the “Relative reactivity with antibody No. 82 (gD1-315 wild-type set to 1)” value is “slightly reduced”, the “Reactivity with anti-gD2 antibody 1” value is “+ ((+): 70% or more)”, the “Reactivity with anti-gD2 antibody 5” value is given as “− ((−): less than 30%)” and the “Reactivity with anti-gD2 antibody 13” value is on record as “+ ((+): 70% or more)”. For the same molecule, in test [1], the “Reactivity with anti-gD2 antibody 72” value was “± ((±): 30% or more and less than 70%)”; the “Reactivity with anti-gD2 antibody 75” value was “± ((±): 30% or more and less than 70%)”; the “Reactivity with anti-gD2 antibody 78” value is “− ((−): less than 30%)”; the “Reactivity with anti-gD2 antibody 82” value is given as “+ ((+): 70% or more)”.

B5: gD1-315v5-55V: gD1-315 with glycochains at SC-A, SC-F, T cell epitope peptide DP5 and V231W (protein)
chain: B4 chain with R186N
modifications: left off: small tags and cut ends
On to B5, for which, in the test on HSV-2 MS strain (setting [5]), the “Mean survival time” value was determined as 10 days and the “Significant difference test (vs saline)” value was “** (** 0.001 = < p < 0.01)”. In the test with HSV-2 MS strain (setting [6]), the “Mean survival time” value is listed as greater than 21 days and the “Significant difference test (vs saline)” value is given as “*** (*** p < 0.001)”. For the same molecule, in the test with HSV-2 MS strain (setting [7]), the “Mean survival time” value was greater than 21 days and the “Significant difference test (vs saline)” value is given as “*** (*** p < 0.001)”. Besides, in the test on HSV-2 MS strain (Experiment 1, 0.1 μg/head/time), the “Mean survival time” value was greater than 21 days and the “Significant difference test (vs saline)” value is given as “*** (*** p < 0.001)”. The “Determination (vs gD1-315)” value in the test on HSV-2 MS strain (Experiment 1, minimum effective dose relative to gD1-315(WT)) is listed as “++”. Moreover, in the test on HSV-2 MS strain (setting [8]), the “Mean survival time” value is recorded as greater than 21 days and the “Significant difference test (vs saline)” value was “* (* 0.01 = < p < 0.05)”. In the test on HSV-2 MS strain (setting [9]), the “Mean survival time” value is listed as greater than 21 days and the “Significant difference test (vs saline)” value was “*** (*** p < 0.001)”. In the test with HSV-2 MS strain (Experiment 4, 0.1 μg/head/time), the “Mean survival time” value is reported as greater than 21 days and the “Significant difference test (vs saline)” value was “*** (*** p < 0.001)”. Besides, in the test on HSV-2 MS strain (setting [10]), the “Mean survival time” value was found to be 8.5 days and the “Significant difference test (vs saline)” value is “N.S”. The “Determination# (vs gD1-315)” value with HSV-2 MS strain (Experiment 4, minimum effective dose relative to gD1-315(WT)) was “++”. In test [1], the “Relative reactivity with antibody No. 82 (gD1-315 wild-type set to 1)” value is recorded as “slightly reduced”, the “Reactivity with anti-gD2 antibody 1” value is given as “+ ((+): 70% or more)”, the “Reactivity with anti-gD2 antibody 5” value is “− ((−): less than 30%)” and the “Reactivity with anti-gD2 antibody 13” value is listed as “+ ((+): 70% or more)”. In test [1], the “Reactivity with anti-gD2 antibody 72” value is reported as “+ ((+): 70% or more)”, the “Reactivity with anti-gD2 antibody 75” value is “− ((−): less than 30%)”, the “Reactivity with anti-gD2 antibody 78” value is given as “− ((−): less than 30%)” and the “Reactivity with anti-gD2 antibody 82” value is listed as “+ ((+): 70% or more)”.

The values above are taken from patent US11357847B2, “Modified HSV gD protein and vaccine containing same” (KM Biologics Co., Ltd., priority 2017, dated 2022).
